This data set addresses rUSF1 (recombinant His-USF1) (UniProt P22415 1-310). In words: EMSA; 20 mM HEPES (pH not stated), 0.1% NP40, 5 mM MgCl2, 50 mM KCl, 2% glycerol, 2 mM DTT, 50 ng/ml poly(dI-dC), room temperature, 20 ul, 5 ug nuclear extract; 5% native PAGE in 1x TBE. The conditions noted are these: protein: recombinant; tags: N-terminal His-tag; chain copies: 2; label: 5'-32P as probe; blunt.

Here are results for two molecules from paper PMC8062489, “Tgf-β1 transcriptionally promotes 90K expression: possible implications for cancer progression”.

Chain of rUSF1 (recombinant His-USF1) (P22415 whole entry): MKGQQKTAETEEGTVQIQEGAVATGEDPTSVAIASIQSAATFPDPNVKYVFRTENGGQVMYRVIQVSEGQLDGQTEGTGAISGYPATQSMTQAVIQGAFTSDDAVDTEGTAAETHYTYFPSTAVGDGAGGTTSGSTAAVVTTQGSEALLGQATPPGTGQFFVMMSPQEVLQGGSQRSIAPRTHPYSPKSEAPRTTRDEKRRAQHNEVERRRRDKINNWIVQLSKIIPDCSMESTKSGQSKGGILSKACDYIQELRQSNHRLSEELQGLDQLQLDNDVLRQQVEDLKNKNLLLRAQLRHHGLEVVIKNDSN

B1: EWT (E, consensus E-box) (dsDNA)
DNA 1: GGAAGCAGACCACGTGGTCTGCTT
DNA 2: AAGCAGACCACGTGGTCTGCTTCC
For the molecule B1, the binding result was “binds”.

B2: Oligo I (dsDNA)
DNA 1: GCAGCCTCCGTCATGTGTTTTCTGGA
DNA 2: TCCAGAAAACACATGACGGAGGCTGC
In the case of B2, the binding result is recorded as “binds”.
